The record followed here is patent US10526611.

The target in this test is full-length GALLS (GALLS-FL) fused in frame with LexA in yeast bait vector pEG202 (pE3462). Description: cell-based or functional assay.

“LSH10 (GIP, GALLS Interacting Protein; At2g42610) expressed from the yeast two-hybrid prey vector pGAD424 (from UniProt Q9S7R3 1-177)” came in with a β-galactosidase units (β-galactosidase units) of 6.
